Measurements published in US20240360179A1.

target: full-length B-Catenin (Uniprot ID P35222) (human); test: competition fluorescence polarization
Sequence (P35222 whole entry): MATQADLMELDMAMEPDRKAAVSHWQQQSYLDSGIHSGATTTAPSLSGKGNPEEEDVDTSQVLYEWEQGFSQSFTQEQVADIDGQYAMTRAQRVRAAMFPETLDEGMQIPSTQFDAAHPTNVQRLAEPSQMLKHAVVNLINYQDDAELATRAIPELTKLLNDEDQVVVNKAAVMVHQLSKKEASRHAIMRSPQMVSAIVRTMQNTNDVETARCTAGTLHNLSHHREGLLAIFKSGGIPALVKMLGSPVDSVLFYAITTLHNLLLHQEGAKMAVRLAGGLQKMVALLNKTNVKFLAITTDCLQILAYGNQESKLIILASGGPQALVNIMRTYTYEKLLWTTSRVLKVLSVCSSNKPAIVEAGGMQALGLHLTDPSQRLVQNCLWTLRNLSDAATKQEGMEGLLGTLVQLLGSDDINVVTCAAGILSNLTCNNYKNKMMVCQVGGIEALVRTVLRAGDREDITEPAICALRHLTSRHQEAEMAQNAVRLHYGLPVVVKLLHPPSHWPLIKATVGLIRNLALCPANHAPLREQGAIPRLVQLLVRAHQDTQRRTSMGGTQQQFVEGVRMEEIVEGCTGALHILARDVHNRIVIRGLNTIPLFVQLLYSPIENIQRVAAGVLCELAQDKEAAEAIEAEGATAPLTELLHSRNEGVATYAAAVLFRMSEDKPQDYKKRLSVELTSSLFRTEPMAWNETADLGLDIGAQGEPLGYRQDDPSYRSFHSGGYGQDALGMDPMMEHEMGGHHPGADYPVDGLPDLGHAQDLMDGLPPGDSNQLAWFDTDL

Substance	IC50
1PydoneAc-PL3-Asp-Npg-B5-Asp-3COOHF-Aib-Ala-Phe-Lys*3-PyrS2-3Thi-BztA-GlnR*3-Ala-NH2 (peptide)	< 50 nM
1Pyrazole Ac-PL3-Asp-Npg-B5-Asp-3COOHF-Aib-Ala-Phe-Lys*3-PyrS2-3Thi-BztA-GlnR*3-Ala-NH2 (peptide)	< 50 nM
3Py Ac-PL3-Asp-Npg-B5-Asp-3COOHF-Aib-Ala-Phe-Lys*3-PyrS2-3Thi-BztA-GlnR*3-Ala-NH2 (peptide)	< 50 nM
3PyPrpc-PL3-Asp-Npg-B5-Asp-3COOHF-Aib-Ala-Phe-Lys*3-PyrS2-3Thi-BztA-GlnR*3-Ala-NH2 (peptide)	< 50 nM
4PyPrpc-PL3-Asp-Npg-B5-Asp-3COOHF-Aib-Ala-Phe-Lys*3-PyrS2-3Thi-BztA-GlnR*3-Ala-NH2 (I-1070) (peptide)	< 50 nM
4PyPrpc-PL3-Asp-Npg-B5-Asp-3COOHF-Aib-Ala-Phe-Lys*3-PyrS2-3Thi-BztA-GlnR*3-Ala-NH2 (I-1071) (peptide)	< 50 nM
5PymAc-PL3-Asp-Npg-B5-Asp-3COOHF-Aib-Ala-Phe-Lys*3-PyrS2-3Thi-BztA-GlnR*3-Ala-NH2 (peptide)	< 50 nM
123TriAc-PL3-Asp-Npg-B5-Asp-3COOHF-Aib-Ala-Phe-Lys*3-PyrS2-3Thi-BztA-GlnR*3-Ala-NH2 (peptide)	< 50 nM

target: full-length beta-catenin (Uniprot ID P35222) (human); test: competition fluorescence polarization

Substance	IC50
I-376: Ac-PL3-Asp-Npg-B5-Asp-3COOHF-Aib-Ala-Phe-[oXyl]Cys-PyrS2-2F3MeF-BztA-Cys-Ala-NH2 (peptide)	220 nM
I-377: Ac-PL3-Asp-Npg-B5-Asp-3COOHF-Aib-Ala-Phe-[pXyl]Cys-PyrS2-2F3MeF-BztA-Cys-Ala-NH2 (peptide)	93 nM
I-566: Ac-PL3-Asp-Npg-B5-Asp-3COOHF-Aib-Ala-Phe-[2_6-naph]Cys-PyrS2-3Thi-BztA-Cys-Ala-NH2 (peptide)	58 nM
I-567: Ac-PL3-Asp-Npg-B5-Asp-3COOHF-Aib-Ala-Phe-[3_3-biph]Cys-PyrS2-3Thi-BztA-Cys-Ala-NH2 (peptide)	120 nM

target: endogenous beta-catenin in cells (DLD1, HAP1 WT) (human); test: cell-based or functional assay
Sequence (P35222 2-781): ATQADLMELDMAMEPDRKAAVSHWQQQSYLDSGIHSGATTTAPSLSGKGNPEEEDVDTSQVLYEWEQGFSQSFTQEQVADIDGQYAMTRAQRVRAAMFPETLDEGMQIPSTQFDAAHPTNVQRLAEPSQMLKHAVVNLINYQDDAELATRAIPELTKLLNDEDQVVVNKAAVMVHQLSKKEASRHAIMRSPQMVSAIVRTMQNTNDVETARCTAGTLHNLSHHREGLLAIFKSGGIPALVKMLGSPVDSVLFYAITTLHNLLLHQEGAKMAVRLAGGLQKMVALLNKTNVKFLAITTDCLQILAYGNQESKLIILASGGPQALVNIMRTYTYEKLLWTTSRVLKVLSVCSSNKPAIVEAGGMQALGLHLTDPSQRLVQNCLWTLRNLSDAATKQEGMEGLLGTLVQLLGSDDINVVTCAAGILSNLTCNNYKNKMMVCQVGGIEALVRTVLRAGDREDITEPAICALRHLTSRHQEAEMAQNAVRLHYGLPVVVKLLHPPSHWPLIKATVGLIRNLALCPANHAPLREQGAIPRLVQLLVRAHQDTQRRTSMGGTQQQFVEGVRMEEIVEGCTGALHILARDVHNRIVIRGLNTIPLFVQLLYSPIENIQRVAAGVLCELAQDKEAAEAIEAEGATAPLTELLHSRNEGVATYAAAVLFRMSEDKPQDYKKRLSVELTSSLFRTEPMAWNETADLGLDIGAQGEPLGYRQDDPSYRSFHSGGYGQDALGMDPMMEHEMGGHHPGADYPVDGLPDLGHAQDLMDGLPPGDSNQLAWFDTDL

Substance	AXIN2 expression in DLD1 cells, IC50	SP5 expression in DLD1 cells, IC50
Peptide A	9.3 µM	9 µM

target: beta-catenin in DLD1 TCF reporter cells (UniProt P35222); test: cell-based or functional assay
Sequence (P35222 2-781 limits assumed): as the sequence (P35222 2-781) above

Substance	beta-catenin TCF4 DLD1 cell reporter assay IC50
C-1: Ac-PL3-Asp-Npg-B5-Asp-3COOHF-Ala-Ala-Phe-Leu-PyrS2-2F3MeF-BztA-Gln-NH2 (peptide)	9.8 µM
I-566: Ac-PL3-Asp-Npg-B5-Asp-3COOHF-Aib-Ala-Phe-[2_6-naph]Cys-PyrS2-3Thi-BztA-Cys-Ala-NH2 (peptide)	> 20 µM
I-567: Ac-PL3-Asp-Npg-B5-Asp-3COOHF-Aib-Ala-Phe-[3_3-biph]Cys-PyrS2-3Thi-BztA-Cys-Ala-NH2 (peptide)	> 20 µM

target: beta-catenin fused to HaloTag (NanoBRET acceptor construct), expressed in HEK293 cells (UniProt P35222); test: NanoBRET in HEK293 cells, beta-catenin-HaloTag against TCF4-NanoLuc
Sequence (P35222 whole entry, the tested form may be a part): as the sequence (P35222 whole entry) above

Substance	IC50
Peptide A	3000 nM

target: full-length B-Catenin (Uniprot ID P35222) (human); test: competition fluorescence polarization, displacement of 5FAM-TCF4

Substance	IC50
Ac-PL3-Asp-Npg-B5-Asp-5F3Me3COOHF-Aib-Ala-Phe-Lys*3-PyrS2-2F3MeF-BztA-GlnR*3-Ala-NH2 (peptide)	< 50 nM
Ac-PL3-Asp-Npg-B5-Asp-dGlu-Aib-Ala-Phe-Lys*3-PyrS2-2F3MeF-BztA-GlnR*3-Ala-NH2 (peptide)	< 50 nM

target: beta-catenin fused to HaloTag (Bcat-Halo NanoBRET construct), expressed in HEK293 cells (UniProt P35222); test: NanoBRET Abs IC50 in HEK293 cells, beta-catenin-HaloTag against TCF4-NanoLuc
Sequence (P35222 whole entry, the tested form may be a part): as the sequence (P35222 whole entry) above

Substance	IC50
Ac-PL3-Asp-Npg-B5-Asp-2COOHF-Aib-Ala-Phe-Lys*3-PyrS2-2F3MeF-BztA-GlnR*3-Ala-NH2 (peptide)	< 3000 nM
Ac-PL3-Asp-Npg-B5-Asp-3F2COOHF-Aib-Ala-Phe-Lys*3-PyrS2-2F3MeF-BztA-GlnR*3-Ala-NH2 (peptide)	> 3000 nM
Ac-PL3-Asp-Npg-B5-Asp-4F3Me2COOHF-Aib-Ala-Phe-Lys*3-PyrS2-2F3MeF-BztA-GlnR*3-Ala-NH2 (peptide)	> 3000 nM
Ac-PL3-Asp-Npg-B5-Asp-4F3Me3COOHF-Aib-Ala-Phe-Lys*3-PyrS2-2F3MeF-BztA-GlnR*3-Ala-NH2 (peptide)	< 3000 nM
Ac-PL3-Asp-Npg-B5-Asp-5F3Me2COOHF-Aib-Ala-Phe-Lys*3-PyrS2-2F3MeF-BztA-GlnR*3-Ala-NH2 (peptide)	> 3000 nM
Ac-PL3-Asp-Npg-B5-Asp-Ala-Aib-Ala-Phe-Lys*3-PyrS2-2F3MeF-BztA-GlnR*3-Ala-NH2 (peptide)	> 3000 nM
Ac-PL3-Asp-Npg-B5-Asp-Asn-Aib-Ala-Phe-Lys*3-PyrS2-2F3MeF-BztA-GlnR*3-Ala-NH2 (peptide)	> 3000 nM
Ac-PL3-Asp-Npg-B5-Asp-Asp-Aib-Ala-Phe-Lys*3-PyrS2-2F3MeF-BztA-GlnR*3-Ala-NH2 (peptide)	> 3000 nM
Ac-PL3-Asp-Npg-B5-Asp-Gln-Aib-Ala-Phe-Lys*3-PyrS2-2F3MeF-BztA-GlnR*3-Ala-NH2 (peptide)	> 3000 nM
Ac-PL3-Asp-Npg-B5-Asp-Glu-Aib-Ala-Phe-Lys*3-PyrS2-2F3MeF-BztA-GlnR*3-Ala-NH2 (peptide)	> 3000 nM
Ac-PL3-Asp-Npg-B5-Asp-Ser-Aib-Ala-Phe-Lys*3-PyrS2-2F3MeF-BztA-GlnR*3-Ala-NH2 (peptide)	> 3000 nM
Ac-PL3-Asp-Npg-B5-Asp-aThr-Aib-Ala-Phe-Lys*3-PyrS2-2F3MeF-BztA-GlnR*3-Ala-NH2 (peptide)	> 3000 nM
